Assay results reported in patent US20250066503A1, “CELL INJURY INDUCING THERAPEUTIC DRUG FOR USE IN CANCER THERAPY” (CHUGAI SEIYAKU KABUSHIKI KAISHA, priority 2016, published 2025).

Molecular target: T1, human GPC3 (human, UniProt P51654 25-563)
T1 construct: range 25-563; soluble analyte; also called soluble human GPC3; glypican 3
Test: SPR

T1 sequence (P51654 25-563 limits assumed): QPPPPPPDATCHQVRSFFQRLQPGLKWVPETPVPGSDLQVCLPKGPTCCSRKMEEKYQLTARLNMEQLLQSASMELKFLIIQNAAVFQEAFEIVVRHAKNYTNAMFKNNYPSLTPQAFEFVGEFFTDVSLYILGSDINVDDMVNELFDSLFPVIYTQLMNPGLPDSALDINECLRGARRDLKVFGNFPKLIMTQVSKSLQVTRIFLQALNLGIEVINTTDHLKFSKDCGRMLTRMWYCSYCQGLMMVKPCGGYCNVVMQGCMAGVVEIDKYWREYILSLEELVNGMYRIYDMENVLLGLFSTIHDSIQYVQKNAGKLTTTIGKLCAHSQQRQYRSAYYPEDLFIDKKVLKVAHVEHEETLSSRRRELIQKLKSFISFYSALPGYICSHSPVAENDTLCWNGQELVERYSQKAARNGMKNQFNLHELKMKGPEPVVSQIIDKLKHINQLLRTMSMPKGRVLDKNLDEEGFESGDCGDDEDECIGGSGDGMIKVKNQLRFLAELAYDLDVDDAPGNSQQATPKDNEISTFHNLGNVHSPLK

| Binder | Kd [nM] |
| --- | --- |
| H0610-G1dh/none-Hi-Kn010G3/L0218-k0 (antibody, V domains shown, one-arm) VH: QVQLVQSGAEVKKPGASVKVSCKASGYTFTDYEMHWIRQPPGQGLEWIGAIDGKTPDTAYSQKFKGRVTLTADKSTSTAYMELSSLTSEDTAVYYCTRFYSYTYWGQGTLVTVSS VL: DIVMTQSPLSLPVTPGEPASISCRSSQSLVHSNRNTYLHWYQQKPGQAPRLLIYKVSNRFRGVPDRFSGSGSGTDFTLKISRVEAEDVGVYYCYQGTQVPYTFGQGTKLEIK | 1.99 |
| H0610-G1dh/none-Hi-Kn010G3/L0233-k0 (antibody, V domains shown, one-arm) VH: QVQLVQSGAEVKKPGASVKVSCKASGYTFTDYEMHWIRQPPGQGLEWIGAIDGKTPDTAYSQKFKGRVTLTADKSTSTAYMELSSLTSEDTAVYYCTRFYSYTYWGQGTLVTVSS VL: DIVMTQSPLSLPVTPGEPASISCRSSQELVHSNRNTYLHWYQQKPGQAPRLLIYKVSNRFSGVPDRFSGSGSGTDFTLKISRVEAEDVGVYYCGQGTQVPYTFGQGTKLEIK | 3.55 |
| H0610-G1dh/none-Hi-Kn010G3/L0224-k0 (antibody, V domains shown, one-arm) VH: QVQLVQSGAEVKKPGASVKVSCKASGYTFTDYEMHWIRQPPGQGLEWIGAIDGKTPDTAYSQKFKGRVTLTADKSTSTAYMELSSLTSEDTAVYYCTRFYSYTYWGQGTLVTVSS VL: DIVMTQSPLSLPVTPGEPASISCRSSQSPVHSNRNTYIHWYQQKPGQAPRLLIYKVSNRFPGVPDRFSGSGSGTDFTLKISRVEAEDVGVYYCYQGTQVPYTFGQGTKLEIK | 0.243 |
| H0610-G1dh/none-Hi-Kn010G3/L0239-k0 (antibody, V domains shown, one-arm) VH: QVQLVQSGAEVKKPGASVKVSCKASGYTFTDYEMHWIRQPPGQGLEWIGAIDGKTPDTAYSQKFKGRVTLTADKSTSTAYMELSSLTSEDTAVYYCTRFYSYTYWGQGTLVTVSS VL: DIVMTQSPLSLPVTPGEPASISCRSSESPVHSNRNTYLHWYQQKPGQAPRLLIYKVSNRFRGVPDRFSGSGSGTDFTLKISRVEAEDVGVYYCGQGTQVPYTFGQGTKLEIK | 0.874 |
| H0610-G1dh/none-Hi-Kn010G3/L0220-k0 (antibody, V domains shown, one-arm) VH: QVQLVQSGAEVKKPGASVKVSCKASGYTFTDYEMHWIRQPPGQGLEWIGAIDGKTPDTAYSQKFKGRVTLTADKSTSTAYMELSSLTSEDTAVYYCTRFYSYTYWGQGTLVTVSS VL: DIVMTQSPLSLPVTPGEPASISCRSSQPLVHSNRNTYLHWYQQKPGQAPRLLIYKVSNRFRGVPDRFSGSGSGTDFTLKISRVEAEDVGVYYCYQGTQVPYTFGQGTKLEIK | 1.36 |
| H0610-G1dh/none-Hi-Kn010G3/L0242-k0 (antibody, V domains shown, one-arm) VH: QVQLVQSGAEVKKPGASVKVSCKASGYTFTDYEMHWIRQPPGQGLEWIGAIDGKTPDTAYSQKFKGRVTLTADKSTSTAYMELSSLTSEDTAVYYCTRFYSYTYWGQGTLVTVSS VL: DIVMTQSPLSLPVTPGEPASISCRSSESPVHSNRNTYIHWYQQKPGQAPRLLIYKVSNRFSGVPDRFSGSGSGTDFTLKISRVEAEDVGVYYCYQGTQVPYTFGQGTKLEIK | 1.19 |
| H0610-G1dh/none-Hi-Kn010G3/L0243-k0 (antibody, V domains shown, one-arm) VH: QVQLVQSGAEVKKPGASVKVSCKASGYTFTDYEMHWIRQPPGQGLEWIGAIDGKTPDTAYSQKFKGRVTLTADKSTSTAYMELSSLTSEDTAVYYCTRFYSYTYWGQGTLVTVSS VL: DIVMTQSPLSLPVTPGEPASISCRSSEPPVHSNRNTYLHWYQQKPGQAPRLLIYKVSNRFRGVPDRFSGSGSGTDFTLKISRVEAEDVGVYYCGQGTQVPYTFGQGTKLEIK | 0.649 |
| H0610-G1dh/none-Hi-Kn010G3/L0237-k0 (antibody, V domains shown, one-arm) VH: QVQLVQSGAEVKKPGASVKVSCKASGYTFTDYEMHWIRQPPGQGLEWIGAIDGKTPDTAYSQKFKGRVTLTADKSTSTAYMELSSLTSEDTAVYYCTRFYSYTYWGQGTLVTVSS VL: DIVMTQSPLSLPVTPGEPASISCRSSQEPVHSNRNTYIHWYQQKPGQAPRLLIYKVSNRFSGVPDRFSGSGSGTDFTLKISRVEAEDVGVYYCYQGTQVPYTFGQGTKLEIK | 1.31 |
| H0610-G1dh/none-Hi-Kn010G3/L0231-k0 (antibody, V domains shown, one-arm) VH: QVQLVQSGAEVKKPGASVKVSCKASGYTFTDYEMHWIRQPPGQGLEWIGAIDGKTPDTAYSQKFKGRVTLTADKSTSTAYMELSSLTSEDTAVYYCTRFYSYTYWGQGTLVTVSS VL: DIVMTQSPLSLPVTPGEPASISCRSSQSPVHSNRNTYIHWYQQKPGQAPRLLIYKVSNRFSGVPDRFSGSGSGTDFTLKISRVEAEDVGVYYCYQGTQWPYTFGQGTKLEIK | 0.589 |
| H0610-G1dh/none-Hi-Kn010G3/L0246-k0 (antibody, V domains shown, one-arm) VH: QVQLVQSGAEVKKPGASVKVSCKASGYTFTDYEMHWIRQPPGQGLEWIGAIDGKTPDTAYSQKFKGRVTLTADKSTSTAYMELSSLTSEDTAVYYCTRFYSYTYWGQGTLVTVSS VL: DIVMTQSPLSLPVTPGEPASISCRSSQSPVHSNRNTYIQWYQQKPGQAPRLLIYKVSNRFSGVPDRFSGSGSGTDFTLKISRVEAEDVGVYYCSQGTQVPYTFGQGTKLEIK | 0.00121 |
| H0610-G1dh/none-Hi-Kn010G3/L0227-k0 (antibody, V domains shown, one-arm) VH: QVQLVQSGAEVKKPGASVKVSCKASGYTFTDYEMHWIRQPPGQGLEWIGAIDGKTPDTAYSQKFKGRVTLTADKSTSTAYMELSSLTSEDTAVYYCTRFYSYTYWGQGTLVTVSS VL: DIVMTQSPLSLPVTPGEPASISCRSSQSPVHSNRNTYIHWYQQKPGQAPRLLIYKVSNRFSGVPDRFSGSGSGTDFTLKISRVEAEDVGVYYCLQGTQVPYTFGQGTKLEIK | 0.408 |
| H0610-G1dh/none-Hi-Kn010G3/L0232-k0 (antibody, V domains shown, one-arm) VH: QVQLVQSGAEVKKPGASVKVSCKASGYTFTDYEMHWIRQPPGQGLEWIGAIDGKTPDTAYSQKFKGRVTLTADKSTSTAYMELSSLTSEDTAVYYCTRFYSYTYWGQGTLVTVSS VL: DIVMTQSPLSLPVTPGEPASISCRSSESLVHSNRNTYLHWYQQKPGQAPRLLIYKVSNRFSGVPDRFSGSGSGTDFTLKISRVEAEDVGVYYCGQGTQVPYTFGQGTKLEIK | 5.38 |
| H0610-G1dh/none-Hi-Kn010G3/L0240-k0 (antibody, V domains shown, one-arm) VH: QVQLVQSGAEVKKPGASVKVSCKASGYTFTDYEMHWIRQPPGQGLEWIGAIDGKTPDTAYSQKFKGRVTLTADKSTSTAYMELSSLTSEDTAVYYCTRFYSYTYWGQGTLVTVSS VL: DIVMTQSPLSLPVTPGEPASISCRSSESPVHSNRNTYLHWYQQKPGQAPRLLIYKVSNRFSGVPDRFSGSGSGTDFTLKISRVEAEDVGVYYCYQGTQVPYTFGQGTKLEIK | 0.848 |
| H0610-G1dh/none-Hi-Kn010G3/L0234-k0 (antibody, V domains shown, one-arm) VH: QVQLVQSGAEVKKPGASVKVSCKASGYTFTDYEMHWIRQPPGQGLEWIGAIDGKTPDTAYSQKFKGRVTLTADKSTSTAYMELSSLTSEDTAVYYCTRFYSYTYWGQGTLVTVSS VL: DIVMTQSPLSLPVTPGEPASISCRSSQEPVHSNRNTYLHWYQQKPGQAPRLLIYKVSNRFRGVPDRFSGSGSGTDFTLKISRVEAEDVGVYYCGQGTQVPYTFGQGTKLEIK | 0.778 |
| H0610-G1dh/none-Hi-Kn010G3/L0219-k0 (antibody, V domains shown, one-arm) VH: QVQLVQSGAEVKKPGASVKVSCKASGYTFTDYEMHWIRQPPGQGLEWIGAIDGKTPDTAYSQKFKGRVTLTADKSTSTAYMELSSLTSEDTAVYYCTRFYSYTYWGQGTLVTVSS VL: DIVMTQSPLSLPVTPGEPASISCRSSQSLVHSNRNTYIHWYQQKPGQAPRLLIYKVSNRFRGVPDRFSGSGSGTDFTLKISRVEAEDVGVYYCGQGTQVPYTFGQGTKLEIK | 2.28 |

Further binders by falling Kd, results first:

| Kd [nM] | Binder |
| --- | --- |
| 4 | H0610-G1dh/none-Hi-Kn010G3/L0230-k0 (antibody, V domains shown, one-arm) VH: QVQLVQSGAEVKKPGASVKVSCKASGYTFTDYEMHWIRQPPGQGLEWIGAIDGKTPDTAYSQKFKGRVTLTADKSTSTAYMELSSLTSEDTAVYYCTRFYSYTYWGQGTLVTVSS VL: DIVMTQSPLSLPVTPGEPASISCRSSQSPVHSNRNTYIHWYQQKPGQAPRLLIYKVSNRFSGVPDRFSGSGSGTDFTLKISRVEAEDVGVYYCYQTTQVPYTFGQGTKLEIK |
| 1.2 | H0610-G1dh/none-Hi-Kn010G3/L0229-k0 (antibody, V domains shown, one-arm) VH: QVQLVQSGAEVKKPGASVKVSCKASGYTFTDYEMHWIRQPPGQGLEWIGAIDGKTPDTAYSQKFKGRVTLTADKSTSTAYMELSSLTSEDTAVYYCTRFYSYTYWGQGTLVTVSS VL: DIVMTQSPLSLPVTPGEPASISCRSSQSPVHSNRNTYIHWYQQKPGQAPRLLIYKVSNRFSGVPDRFSGSGSGTDFTLKISRVEAEDVGVYYCYQSTQVPYTFGQGTKLEIK |
| 0.637 | H0610-G1dh/none-Hi-Kn010G3/L0238-k0 (antibody, V domains shown, one-arm) VH: QVQLVQSGAEVKKPGASVKVSCKASGYTFTDYEMHWIRQPPGQGLEWIGAIDGKTPDTAYSQKFKGRVTLTADKSTSTAYMELSSLTSEDTAVYYCTRFYSYTYWGQGTLVTVSS VL: DIVMTQSPLSLPVTPGEPASISCRSSEPPVHSNRNTYLHWYQQKPGQAPRLLIYKVSNRFSGVPDRFSGSGSGTDFTLKISRVEAEDVGVYYCYQGTQVPYTFGQGTKLEIK |
| 0.475 | H0610-G1dh/none-Hi-Kn010G3/L0223-k0 (antibody, V domains shown, one-arm) VH: QVQLVQSGAEVKKPGASVKVSCKASGYTFTDYEMHWIRQPPGQGLEWIGAIDGKTPDTAYSQKFKGRVTLTADKSTSTAYMELSSLTSEDTAVYYCTRFYSYTYWGQGTLVTVSS VL: DIVMTQSPLSLPVTPGEPASISCRSSQSPVHSNRNTYIHWYQQKPGQAPRLLIYKVSNRLSGVPDRFSGSGSGTDFTLKISRVEAEDVGVYYCYQGTQVPYTFGQGTKLEIK |
| 0.202 | H0610-G1dh/none-Hi-Kn010G3/L0228-k0 (antibody, V domains shown, one-arm) VH: QVQLVQSGAEVKKPGASVKVSCKASGYTFTDYEMHWIRQPPGQGLEWIGAIDGKTPDTAYSQKFKGRVTLTADKSTSTAYMELSSLTSEDTAVYYCTRFYSYTYWGQGTLVTVSS VL: DIVMTQSPLSLPVTPGEPASISCRSSQSPVHSNRNTYIHWYQQKPGQAPRLLIYKVSNRFSGVPDRFSGSGSGTDFTLKISRVEAEDVGVYYCVQGTQVPYTFGQGTKLEIK |
| 0.093 | H0610-G1dh/none-Hi-Kn010G3/L0226-k0 (antibody, V domains shown, one-arm) VH: QVQLVQSGAEVKKPGASVKVSCKASGYTFTDYEMHWIRQPPGQGLEWIGAIDGKTPDTAYSQKFKGRVTLTADKSTSTAYMELSSLTSEDTAVYYCTRFYSYTYWGQGTLVTVSS VL: DIVMTQSPLSLPVTPGEPASISCRSSQSPVHSNRNTYIHWYQQKPGQAPRLLIYKVSNRFSGVPDRFSGSGSGTDFTLKISRVEAEDVGVYYCIQGTQVPYTFGQGTKLEIK |
| 0.0555 | H0610-G1dh/none-Hi-Kn010G3/L0248-k0 (antibody, V domains shown, one-arm) VH: QVQLVQSGAEVKKPGASVKVSCKASGYTFTDYEMHWIRQPPGQGLEWIGAIDGKTPDTAYSQKFKGRVTLTADKSTSTAYMELSSLTSEDTAVYYCTRFYSYTYWGQGTLVTVSS VL: DIVMTQSPLSLPVTPGEPASISCRPSQSPVHSNRNTYIQWYQQKPGQAPRLLIYKVSNRFSGVPDRFSGSGSGTDFTLKISRVEAEDVGVYYCYQGTQVPYTFGQGTKLEIK |
